Molecular target: T1, recombinant calcineurin B (UniProt P63098 1-170)
T1 construct: calcineurin B (CnB), regulatory subunit of calcineurin; recombinant protein (rhCnB); also called CnB; rhCnB; source: provided by Haikou Qili Pharmaceutical Co., Ltd
Assay: MST; purified TLR4 ectodomain or soluble CD14 labelled with DyLight 488, 20 nM in MST buffer; CnB titrated in 16 1:1 dilutions; 10 min incubation; Monolith NT.115, 25 °C, 50% LED power, 20% MST power
Details: both partners purified

- Kd: 1010 nM
B1: soluble CD14 (receptor)
chain: TTPEPCELDDEDFRCVCNFSEPQPDWSEAFQCVSAVEVEIHAGGLNLEPFLKRVDADADPRQYADTVKALRVRRLTVGAAQVPAQLLVGALRVLAYSRLKELTLEDLKITGTMPPLPLEATGLALSSLRLRNVSWATGRSWLAELQQWLKPGLKVLSIAQAHSPAFSCEQVRAFPALTSLDLSDNPGLGERGLMAALCPHKFPAIQNLALRNTGMETPTGVCAALAAAGVQPHSLDLSHNSLRATVNPSAPRCMWSSALNSLNLSFAGLEQVPKGLPAKLRVLDLSCNRLNRAPQPDELPEVDNLTLDGNPFLVPGTALPHEGSMN
modifications: labelled with DyLight 488 in the MST experiment and where it was the soluble partner in the ELISA; unlabelled where coated on the plate and in the co-IP
notes: CD14, soluble recombinant form; also called sCD14; purified soluble CD14; source: bought: Sino Biological, Inc
